Measurements: the supplement of paper PMC11246515
± gives the standard deviation of the averaged measurements.

Assay: total protein half-life in vivo (active degradation + dilution); higher = more stable protein
[1] = E. coli NCM3722 delta-clpP delta-lon delta-hslV, growth: N-lim chemostat, doubling time 6 h
[2] = E. coli NCM3722 delta-clpP, growth: N-lim chemostat, doubling time 6 h
[3] = E. coli NCM3722 delta-hslV, growth: N-lim chemostat, doubling time 6 h
[4] = E. coli NCM3722 delta-lon, growth: N-lim chemostat, doubling time 6 h
[5] = E. coli NCM3722 delta-smpB, growth: N-lim chemostat, doubling time 6 h
[6] = wild type E. coli NCM3722, growth: C-lim chemostat, doubling time 3 h
[7] = wild type E. coli NCM3722, growth: C-lim chemostat, doubling time 6 h
[8] = wild type E. coli NCM3722, growth: C-lim chemostat, doubling time 12 h
[9] = wild type E. coli NCM3722, growth: N-lim chemostat, doubling time 12 h
[10] = wild type E. coli NCM3722, growth: P-lim chemostat, doubling time 6 h
[11] = wild type E. coli NCM3722, growth: P-lim chemostat, doubling time 12 h
[12] = wild type E. coli NCM3722, growth: N-lim chemostat, doubling time 6 h

| Sequence | total protein half-life in vivo [1] [h] | total protein half-life in vivo [2] [h] | total protein half-life in vivo [3] [h] | total protein half-life in vivo [4] [h] | total protein half-life in vivo [5] [h] | total protein half-life in vivo [6] [h] | total protein half-life in vivo [7] [h] | total protein half-life in vivo [8] [h] | total protein half-life in vivo [9] [h] | total protein half-life in vivo [10] [h] | total protein half-life in vivo [11] [h] | total protein half-life in vivo [12] [h] |
| --- | --- | --- | --- | --- | --- | --- | --- | --- | --- | --- | --- | --- |
| MAISTPMLVTFCVYIFGMILIGFIAWRSTKNFDDYILGGRSLGPFVTALSAGASDMSGWLLMGLPGAVFLSGISESWIAIGLTLGAWINWKLVAGRLRVHTEYNNNALTLPDYFTGRFEDKSRILRIISALVILLFFTIYCASGIVAGARLFESTFGMSYETALWAGAAATILYTFIGGFLAVSWTDTVQASLMIFALILTPVIVIISVGGFGDSLEVIKQKSIENVDMLKGLNFVAIISLMGWGLGYFGQPHILARFMAADSHHSIVHARRISMTWMILCLAGAVAVGFFGIAYFNDHPALAGAVNQNAERVFIELAQILFNPWIAGILLSAILAAVMSTLSCQLLVCSSAITEDLYKAFLRKHASQKELVWVGRVMVLVVALVAIALAANPENRVLGLVSYAWAGFGAAFGPVVLFSVMWSRMTRNGALAGMIIGALTVIVWKQFGWLGLYEIIPGFIFGSIGIVVFSLLGKAPSAAMQKRFAEADAHYHSAPPSRLQES | 5.44 ± 0.019 | 4.61 ± 0.21 | 4.68 ± 0.42 | 4.66 | 4.592 ± 0.044 | 3.51 ± 0.45 | 5.52 ± 0.072 | 9.72 ± 1.1 | 7.25 ± 1.6 | 5.18 ± 0.42 | 10.6 ± 0.28 |  |
| MAKHLFTSESVSEGHPDKIADQISDAVLDAILEQDPKARVACETYVKTGMVLVGGEITTSAWVDIEEITRNTVREIGYVHSDMGFDANSCAVLSAIGKQSPDINQGVDRADPLEQGAGDQGLMFGYATNETDVLMPAPITYAHRLVQRQAEVRKNGTLPWLRPDAKSQVTFQYDDGKIVGIDAVVLSTQHSEEIDQKSLQEAVMEEIIKPILPAEWLTSATKFFINPTGRFVIGGPMGDCGLTGRKIIVDTYGGMARHGGGAFSGKDPSKVDRSAAYAARYVAKNIVAAGLADRCEIQVSYAIGVAEPTSIMVETFGTEKVPSEQLTLLVREFFDLRPYGLIQMLDLLHPIYKETAAYGHFGREHFPWEKTDKAQLLRDAAGLK [P0A817] | 2.78 ± 0.62 | 2.16 ± 0.45 | 2.01 ± 0.14 | 2.41 ± 0.18 | 2.15 ± 0.17 | 2.97 ± 0.16 | 4.63 ± 0.68 | 6.86 ± 0.4 | 2.72 ± 0.053 | 5.17 ± 0.096 | 9.5 ± 0.32 | 2.1 ± 0.1 |
| MAKNIQAIRGMNDYLPGETAIWQRIEGTLKNVLGSYGYSEIRLPIVEQTPLFKRAIGEVTDVVEKEMYTFEDRNGDSLTLRPEGTAGCVRAGIEHGLLYNQEQRLWYIGPMFRHERPQKGRYRQFHQLGCEVFGLQGPDIDAELIMLTARWWRALGISEHVTLELNSIGSLEARANYRDALVAFLEQHKEKLDEDCKRRMYTNPLRVLDSKNPEVQALLNDAPALGDYLDEESREHFAGLCKLLESAGIAYTVNQRLVRGLDYYNRTVFEWVTNSLGSQGTVCAGGRYDGLVEQLGGRATPAVGFAMGLERLVLLVQAVNPEFKADPVVDIYLVASGADTQSAAMALAERLRDELPGVKLMTNHGGGNFKKQFARADKWGARVAVVLGESEVANGTAVVKDLRSGEQTAVAQDSVAAHLRTLLG | 5.71 ± 1.3 | 5.11 ± 0.23 | 5.44 ± 0.23 | 5.45 ± 0.52 | 4.85 ± 0.12 | 3.17 ± 0.23 | 6.14 ± 0.2 | 10.5 ± 0.68 | 9.1857 ± 0.0011 | 5.98 ± 0.1 | 13.7 ± 0.34 | 4.8 ± 0.22 |
| MAKNTSCGVQLRIRGKVQGVGFRPFVWQLAQQLNLHGDVCNDGDGVEVRLREDPETFLVQLYQHCPPLARIDSVEREPFIWSQLPTEFTIRQSTGGTMNTQIVPDAATCPACLAEMNTPGERRYRYPFINCTHCGPRFTIIRAMPYDRPFTVMAAFPLCPACDKEYRDPLDRRFHAQPVACPECGPHLEWVSHGEHAEQEAALQAAIAQLKMGKIVAIKGIGGFHLACDARNSNAVATLRARKHRPAKPLAVMLPVADGLPDAARQLLTTPAAPIVLVDKKYVPELCDDIAPDLNEVGVMLPANPLQHLLLQELQCPLVMTSGNLSGKPPAISNEQALADLQGIADGFLIHNRDIVQRMDDSVVRESGEMLRRSRGYVPDALALPPGFKNVPPVLCLGADLKNTFCLVRGEQAVLSQHLGDLSDDGIQMQWREALRLMQNIYDFTPQYVVHDAHPGYVSSQWAREMNLPTQTVLHHHAHAAACLAEHQWPLDGGDVIALTLDGIGMGENGALWGGECLRVNYRECEHLGGLPAVALPGGDLAAKQPWRNLLAQCLRFVPEWQNYSETASVQQQNWSVLARAIERGINAPLASSCGRFFDAVAAALGCAPATLSYEGEAACALEALAASCHGVTHPVTMPRVDNQLDLATFWQQWLNWQAPVNQRAWAFHDALAQGFAALMREQATMRGITTLVFSGGVIHNRLLRARLAHYLADFTLLFPQSLPAGDGGLSLGQGVIAAARWLAGEVQNG |  |  |  |  |  |  |  | 9.74 ± 2.4 |  |  |  |  |
| MAKNYYDITLALAGICQSARLVQQLAHQGHCDADALHVSLNSIIDMNPSSTLAVFGGSEANLRVGLETLLGVLNASSRQGLNAELTRYTLSLMVLERKLSSAKGALDTLGNRINGLQRQLEHFDLQSETLMSAMAAIYVDVISPLGPRIQVTGSPAVLQSPQVQAKVRATLLAGIRAAVLWHQVGGGRLQLMFSRNRLTTQAKQILAHLTPEL | 6.52 ± 1.1 | 5.78 ± 0.42 | 6.17 ± 0.66 | 5.23 ± 0.89 | 6 ± 0.18 | 3.36 ± 0.65 | 5.87 ± 0.23 | 12.2 ± 2.8 | 10.6 ± 0.7 | 6.04 ± 0.18 | 13.2 ± 0.51 | 5.449 ± 0.017 |
| MAKQDYYEILGVSKTAEEREIRKAYKRLAMKYHPDRNQGDKEAEAKFKEIKEAYEVLTDSQKRAAYDQYGHAAFEQGGMGGGGFGGGADFSDIFGDVFGDIFGGGRGRQRAARGADLRYNMELTLEEAVRGVTKEIRIPTLEECDVCHGSGAKPGTQPQTCPTCHGSGQVQMRQGFFAVQQTCPHCQGRGTLIKDPCNKCHGHGRVERSKTLSVKIPAGVDTGDRIRLAGEGEAGEHGAPAGDLYVQVQVKQHPIFEREGNNLYCEVPINFAMAALGGEIEVPTLDGRVKLKVPGETQTGKLFRMRGKGVKSVRGGAQGDLLCRVVVETPVGLNERQKQLLQELQESFGGPTGEHNSPRSKSFFDGVKKFFDDLTR |  | 6.07 ± 0.65 | 4.941 ± 0.031 | 6.155 ± 0.042 | 4.51 ± 0.36 | 2.67 ± 0.034 | 4.97 ± 0.22 | 9.44 ± 0.52 | 8.73 ± 0.55 | 5.193 ± 0.045 | 11.41 ± 0.11 | 4.9 ± 0.55 |
| MAKSLFRALVALSFLAPLWLNAAPRVITLSPANTELAFAAGITPVGVSSYSDYPPQAQKIEQVSTWQGMNLERIVALKPDLVIAWRGGNAERQVDQLASLGIKVMWVDATSIEQIANALRQLAPWSPQPDKAEQAAQSLLDQYAQLKAQYADKPKKRVFLQFGINPPFTSGKESIQNQVLEVCGGENIFKDSRVPWPQVSREQVLARSPQAIVITGGPDQIPKIKQYWGEQLKIPVIPLTSDWFERASPRIILAAQQLCNALSQVD | 3.92 ± 0.45 | 5.19 ± 0.79 | 6.42 ± 0.87 | 5.93 ± 0.48 | 5.67 ± 0.72 |  | 6.08 ± 0.89 | 4.41 ± 0.44 | 12.1 ± 1.3 |  | 12.3 ± 0.33 | 5.44 ± 0.56 |
| MAKYNEKELADTSKFLSFVLRHKPEAIGIVLDREGWADIDKLILCAQKAGKRLTRALLDTVVATSDKKRFSYSSDGRCIRAVQGHSTSQVAISFAEKTPPQFLYHGTASRFLDEIKKQGLIAGERHYVHLSADEATARKVGARHGSPVILTVKAQEMAKRGLPFWQAENGVWLTSTVAVEFLEW | 4.33 | 1.59 |  | 2.51 | 1.27 ± 0.11 | 1.85 | 2.25 ± 0.44 | 5.97 |  |  |  |  |
